Measured values as given in the domain aggregation screens of Martell et al. (2025).

Experiment: soluble fraction after stress (log2 fold change); higher = more stays soluble; pooled small domains, quantitative proteomics
Conditions: stress: 75 degC
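Also: 20 min heating vs room temperature control held 20 min.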

HMHQKELLNLSYKEAKRYILDDFERVFFTNLLRKTGGNVSRAAQLAQVHRKNLYVKLTELGIDPRQFG
soluble fraction (log2): -1.53

HMHQLQLDSRSRLHMTGVIEVESFDEATIVLTTTRGTLIVRGENLHLQLLRLDGGEVLVDGTVDSLSYE
soluble fraction (log2): -2.67

HMHQPPDLDDFEAFVGRVKPALLQALVATYGPVDGREATVDALSWAWEHWDRLADVDHPVGYLYRV
soluble fraction (log2): -0.0172

HMHRFAVLDTVREVAAGGVAATLSIGVGRDADSFDALFKNASMALEMALSRGGDQAVVKDRMNFQFYGG
soluble fraction (log2): 0.153

HMHRGEIVDGVIASVNPRSILIDIGGKSDALVHPRELERMSDEDLRSLKPGQDVSVYVIETDSDGTMLVSL
soluble fraction (log2): 0.0809

HMHSEISGGSKDPFRFMPHLGVEDIHAETDRLSGSGVEFIREPDQESWGGWVATFKDPDGNILQLLQL
soluble fraction (log2): 0.197

HMHSQVFTDPDKAKNAVVKLGAPLVVKADGLALGKGVIIAQNPQAAKEAVASVGSSGISSISVT
soluble fraction (log2): 0.126

HMHTDDDGITEAFPHLRLLSLGEDILDLLEKSRFIRKLNNELVYYVVDFREQNSIDGRRYHPSIYHNL
soluble fraction (log2): -0.437

HMHTGEVVNGKVIDVKEDQIILNVGFKSDGIITRSEYSNDNSLDLRTVVNVGDDMEAKVLKINDGEGQVLL
soluble fraction (log2): -0.242

HMHTGLAELTDRERDVLRLIATGMTNAAIGSALAYSPSTIRADTVSIYRKLEVRGRAEAAAVAVAAGLTQP
soluble fraction (log2): -1.72

HMHTPSGALLSAIEKEWGSFDNFKKEFTTAATSLFGSGWVWLAKDKKGKLYILSENNAGNPITKGYTPILG
soluble fraction (log2): -0.359

HMHVLNEEYYNRIKAIQFTMNHDDGNSLNDIEKSDIILLGVSRTSKTPTSIYLANRGLRTSNIPLINEK
soluble fraction (log2): -0.655

HMHVSLADQAYKTIRTNILNLTYPPGTQLTEAKLASDLNMSRSPVRTAIKMLQADGLLVSDYYKSMTVK
soluble fraction (log2): -1.21

HMHVYSYPAAVKIKNAVGREMMVTLLGRSGTHVQFARQDGEEFVYPISSLDLAAQTLISKYPNDGIKN
soluble fraction (log2): -0.895

HMIAALEGKQAMVLDQVSLHHGQVKLGGEVWTARPLNDQDVYEPGDRVTVMRIDGATAVVWRN
soluble fraction (log2): -0.472

HMIAASPVGGIDRVLELLDARGQRVAWIEASGTEGGQRLRLGWIDAQGAERHGAWVPWSADDLLLYA
soluble fraction (log2): -0.739

HMIAASQVLRDARQRSRLTQAELGRRADVPQSVISAYESARREPSVDMLARLVAAAGFDLRIGLTP
soluble fraction (log2): -0.755

HMIADPLVINKLMDSMALAINDYNPDSVEPVLDELRQYFSENQLRELSKAMDDFDFDEALNALTLLRT
soluble fraction (log2): -0.185

HMIALKNLREEKRMTQAELSKDLEISPSAIGMYEQGRRVPDVSTLKKISAYFNVSIDYLLGNSTSKDI
soluble fraction (log2): -0.626

HMIALLRLGTAPDIKAQAPLATILARHNGEMSAKDLWQRFGGEIDTFYAQLKTEVAHGWILEPT
soluble fraction (log2): -2.34

HMIAVLKQGVSKQQVENLITWFRSRGLDVHISEGKFQTIIGLIGDTSKVDIDLLNGLEIIESVKRI
soluble fraction (log2): -0.344

HMIAVSQEQIKQIIVDDPSFHDANGKFSQALLTQYLNQRRMSEDQFVEEIRDQFLFQNLQNLVQNG
soluble fraction (log2): 0.278

HMIDAAHLEKAILSLPEGARAVFVLIETEGFAHREVAELLGISEGTSKSQLNYAKKRLREILV
soluble fraction (log2): -0.266

HMIDAKTTLQELTQKSGKKPEYRLIKIEGPDHLRRFTVEVFIDGQSMGTGTGHSKKEAEQNAANFALKNLQ
soluble fraction (log2): -0.00455

HMIDEQDLKKYILISTSVEELTDYLGATDRMLYDYLYSLKHVGQYWQLNERFLLDLYKLPNLVIVDKEDLE
soluble fraction (log2): -0.172

HMIDFDEQGNLWVHEMGPRHGDELNLIEKARNYGYPTVSQGDHYSGVKISNHEDIPIFKSPEKAWVPAISP
soluble fraction (log2): -0.228

HMIDFDHADIERLWNSIIHYVPERQKLDFAIDFIKSLEDIGVEHDVLRGSAELDPKLEEAVNTVFE
soluble fraction (log2): -0.725

HMIDIIEYIISEESKGLRADQGIALQNPQYSRSLIQKWIKKGSVLVNNKIIRTKEILLEGDKISITPEENI
soluble fraction (log2): -0.546

HMIDKIRYPELIMKLAHQQGGTIKRRDVEQLLHLQTKQAYRELSKLVDAGELVSVGRGPGAHYEVS
soluble fraction (log2): -0.316

HMIDQNEDLLSGYIDEVLSQNPDKVNEYLKGKSGLIGFFMGQIKQKSATALDAALLKSQLETALEKLRIK
soluble fraction (log2): -0.14

HMIDQSVVVQYLSKLTNTPYLKTREITMGEPYMQFERGEIKFQEYVEDIRALLPGGDRIDADRLRDIWMNS
soluble fraction (log2): -1.1

HMIDRADLWEALRKLPEDTLKLFSLHFEKGMTHDEISKHTDIPVGTVKTKLRRGLIEARKLAREF
soluble fraction (log2): -1.28

HMIDTPQELARLLRLLDEQNFEAEILFHKLRPDLLHLWSKEHVTRIAEALDAFDYQMALTLLNASP
soluble fraction (log2): -2.43

HMIDVNLVQRGKTLHLRRRVPMRYSSVERREYVSISLKTDSEAEARRKAGAAWDQMIAAWEARLA
soluble fraction (log2): -0.382

HMIDYTDTSAVKDSAAVAGRVREMINEGVPIADVNAFIRSASENGLISDDSARRLRYMNDSR
soluble fraction (log2): -0.0436

HMIEDMTINIEERLSLNGDIKKSEYILQYIKPDFIRKVILSPELNKGEIYIYDSKKKVMYLPLFDQVSEEI
soluble fraction (log2): -0.355

HMIEINNLEDLKLMKEFILKNGKYGFGVFVGGKYIGLSDIGSVNSFKDTLGLPVVSLGNDDFKRFTEAH
soluble fraction (log2): -1.07

HMIEQEQAFLEQVLKKYSQEELVLTVGSRTLVKYSAGQLERLLEHYPHVRLASSPVNGEAGFLLSRG
soluble fraction (log2): -0.0614

HMIEQIELEARVPDELGGQRLDQVAAQMFDDFSRSRLTGWIRDGSLTADGQQLRPRDIVYGGTLLQLKAEQ
soluble fraction (log2): 0.132

HMIESFQNGLVEHDQFTRPNPWVTPNFSKIEVPSILLSGKHADIDLWKHQNSIENTKKNRPDLFKNYLKKN
soluble fraction (log2): -0.149

HMIEYILDYLANRGVYAASQGEQQQMEDGIARYLQENGLEDGNTGAYYQKYVSNHLQQISASDLKAYFLN
soluble fraction (log2): -0.946

HMIEYYDDEELDVFKGRQSDNYTNKEIEQFAEVLHTMRQDEVKGWNRSLILRSINLPDSLKDEVIMLI
soluble fraction (log2): -0.568

HMIFDPTTLPEKQLLVYGIISSHPGLNAKQISEMLTLKKSSIETAIKGLRKKEIIEYEGTTRNGG
soluble fraction (log2): -0.267

HMIFEEDILKEFRGSLIFITHDRRFLDNIATRIIELDRGKLLSFPGNFSAYKKAKNEQLANEAVENA
soluble fraction (log2): -0.439

HMIFEETVFKDIAFGPKNMGLSEAEIKRRVYETAENIGLSQELMERSPFELSGGQKRRVAIAGVMAMEP
soluble fraction (log2): 0.268

HMIFELDSDRASAGNTIGKLVSKWNNTEVASVQFVSGDDTSNKDNASIYLNTRSGGSGNLVRLRITK
soluble fraction (log2): 0.429

HMIFRPALITDLDAVERHYTELLTREAETGRSSTNWSLGVYPTRQTATAAQAAGTLWVLEREGQVVASVI
soluble fraction (log2): -0.0961

HMIFTPNGDRVNDVFEIEMGVKLEFQIIILNQQNQTVFKSADPDFKWDGTMLNGEPAPSGTYLYYFSAKD
soluble fraction (log2): 0.207

HMIGERIKRARAAAGLSMQALGKQVGISANMVKKYEHDQSMPSSGVLLKLATALSVRTEYFFRPA
soluble fraction (log2): -1.38

HMIGGASVFKQFLPLADKMLLTLIHSEFEGDTYFPVFSEKEWLLQESSSLLSATGYQLSFQTYIR
soluble fraction (log2): 0.0107

HMIGGEDEILKVVLEVLEEKPEAIEQYKNGRTNIVDFLVGQVMKKTRGQANPATTREFMIREIEK
soluble fraction (log2): -0.522

HMIGKDLLGYEVFSESGDLVGILKDVMWLPHSDVYVITNGGKELLIPVIPEVVKGINHEQGVIVISPM
soluble fraction (log2): 0.394

HMIGPYAAAKLMTNKDFVKWLSGGVEKSVFNPNSFGQHIRRLVQISEVNPDIRDEINAVVQGLTQ
soluble fraction (log2): -0.445

HMIGRIKGQLIEKKSDSVVIDVHGIGYVVYVTEKTARSLTLGDQSRDISLYSELLVKEDLLQLVGFI
soluble fraction (log2): -0.075

HMIGRRLKVARASAGLSLRELAARMDGVVTPQAIGKYERNEDMPGSRALMALASALGVSEGYLLSD
soluble fraction (log2): -1.38

HMIHDSAESVVFPFGKYKGYTLAHVIREHPHYTYWIRDNADFSPLWREAVSLALQNRDIGHLNLPHVK
soluble fraction (log2): -0.222

HMIHMNMGQKINQLRLQKGFTLEELGNLVGVGKSTVRKWENGMIANMKRDKILLVAEALDTSPAYLMGWD
soluble fraction (log2): -2.12

HMIIENIVVEIKGEVYNPGLYILEQGSRINDLIELSGGFTKDANGTDLNLAKVLSDGEVIIVSKKG
soluble fraction (log2): -1.29

HMIIIMKPNASEEAVRKVTHIIESKGLQVHLSKGSQVTIVGVVGDKTRLQGSNIEISEGVDKVVAVT
soluble fraction (log2): -1.22

HMIILDASASRAIGNGTIEETKWDFGNGESSTNRGGPIVERQIYANQAAYILKLSMKTNDGQLFTKEIQLL
soluble fraction (log2): 0.162

HMIINKFERRKEIQIQFNNQERIKFKDFFLNLSKENIIVSFLILLELVRESLIDFSGTNENDIEFFIK
soluble fraction (log2): -2.38

HMIITTPYKVTASAINIRSGRGTSYSIIGTVSKGQTVDVYNNSLSKGWVKVKFSGSVGYAYAKYLEK
soluble fraction (log2): -1.62

HMIIVMSANANAREISEVIARIRAMGYDVHLSHGKERTIIGVIGRGTPIDREQLSLMSGVQQVMPV
soluble fraction (log2): -2.44

HMIKIEDILNVESVELSDSEYKKFLNGILINVKNLENGWAKVYSGNEFKGFGIVDKNLLKRKIVID
soluble fraction (log2): -1.49

HMIKIEDYTNKDYNKVEASLEVKGLVVNIEYKAVDDKAKYKGKEDLIIDQSVKKDATLVKGDTIILYLPK
soluble fraction (log2): -1.21

HMIKISDYLSEEDLNFIKEMEKIYPYFDFDSEGNLILTKSIDELKDKYGFDEAFVSRLDTVLNSR
soluble fraction (log2): 0.108

HMIKITLGWVISVRRHDLGYTQHKMARAVGISDLTVSRIESDDGITPDNNTLRKIAEYLKIDYNSLLTLK
soluble fraction (log2): -1.37

HMIKLIKKDTNISELKMSKMPWDVMLYGKPYQVVSIKGYVHTIGGRRGENDLWMYPRDESPTYENLIEFQ
soluble fraction (log2): -2.19

HMIKNKDRIQYTLAHRKAFRKIEKELLGYNTFRSLFHDLDKVFLYPFFDYKKVHNFHRNHAHH
soluble fraction (log2): 0.132

HMIKRETNDNPVDPASLSLGDRVKILTLNQNGEIISLPDEKGLLQVQVGIMKIGVNVSDIMLI
soluble fraction (log2): -0.9

HMIKRITDEQHPVDVDRLLVVTFTNAAASEMRERIGDAIEAALEKDPYNQHLQRQLTLVHNAQITTIDS
soluble fraction (log2): 0.171

HMIKSEERIQNIKEYILEFQFTYHRTPTMAQIAEAVGTVKSNVYKYLSEMEERGILTRNKREIEINDTIQ
soluble fraction (log2): -0.807

HMIKSMTGYGSAKGTVEGIEVSVELKSVNNKFLDTSIRLPRSFLFAEETIKQAVSSHISRGKVDVFVSVDS
soluble fraction (log2): 0.587

HMIKYTIEELGELTGFTRRTIRYYVQEGLIDPPAGRGRGGFYYDSHVQQLLRIKSFQEKGIGITAMVSLM
soluble fraction (log2): -2.32

HMILEEIIGKNIARYREAAGLTQATLAEKIGISTAFVSRVERGQKKMKVETLYATAKVLNVSVDALLS
soluble fraction (log2): -2.61

HMILKNVPSNLVNQRLDKVATVLFQTYSRTQIKKWILEGRLLVNGEISNPKDLVNENDEIEINPI
soluble fraction (log2): -2.95
